Measured values: US20030027314A1

Tests used:
[1] = biological target: bHLH MAX (unmodified Max); assay: homodimer, study of FIG. 9 (method not given)
[2] = biological target: c-Myc bHLH protein (murine) (UniProt P01108); assay: heterodimer with c-Myc, study of FIG. 9 (method not given)
[3] = biological target: c-Jun (unmodified); assay: thermal melting curve, mixture (FIG. 4)
[4] = biological target: c-Jun (unmodified); assay: from thermal melts, Kd at 37 °C (FIG. 4)
Target sequence in this assay (chain, from a related filing, as listed by the source): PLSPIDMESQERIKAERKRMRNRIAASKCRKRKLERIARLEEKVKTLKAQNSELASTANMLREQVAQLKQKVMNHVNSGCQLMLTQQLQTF

c-Fos (unmodified), sequence (P01100 other isoform, or with tags, fused parts or gaps limits assumed): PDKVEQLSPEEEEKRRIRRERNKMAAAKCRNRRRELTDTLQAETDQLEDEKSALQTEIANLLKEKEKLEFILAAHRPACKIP
bHLH MAX (unmodified Max), sequence (P61244 22-113): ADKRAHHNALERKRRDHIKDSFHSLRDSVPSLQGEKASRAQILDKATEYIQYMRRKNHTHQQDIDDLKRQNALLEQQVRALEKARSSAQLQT

| Kd [1] | Kd [2] | Tm [3] | Kd [4] | Substance |
| --- | --- | --- | --- | --- |
| 6000 nM | 30 nM | – | – | bHLH MAX (unmodified Max) |
| – | – | 50 °C | 200 nM | c-Fos (unmodified) (from UniProt P01100 128-207) |
| – | – | 53 °C | – | 0heptad-Fos (c-Fos with the basic region deleted) |
